Measurements from patent publication US20170037117A1, “COMPOSITIONS AND METHODS FOR TREATING METABOLIC DISORDERS” (Salk Institute for Biological Studies, priority 2014, published 2017).

Assays:
[1] = biological target: human α-CGRP 1-37 (WT) (human); assay: Biacore SPR 25 C, Fab over N-biotinylated peptide on SA chip
[2] = biological target: human α-CGRP K35A (19-37) (human); assay: Biacore SPR 25 C, Fab over peptide on SA chip; ratio to parent 19-37
[3] = biological target: human α-CGRP fragment 25-37 (human); assay: Biacore, 25 C, Fab over biotin-fragment on SA chip
rat α-CGRP (1-37) (rat) = assay: Biacore, 37 C, Fab over biotin-CGRP on SA chip
[4] = biological target: human α-CGRP 1-37 (WT) (human); assay: Biacore, 37 C, Fab over biotin-CGRP on SA chip
[5] = biological target: human α-CGRP 1-37 (WT) (human); assay: Biacore, 25 C, Fab over biotin-CGRP on SA chip
[6] = biological target: human α-CGRP N31A (25-37) (human); assay: Biacore SPR 25 C, Fab over peptide on SA chip; ratio to parent 25-37
[7] = biological target: human α-CGRP V28A (25-37) (human); assay: as above
[8] = biological target: human α-CGRP S34A (25-37) (human); assay: as above
[9] = biological target: human α-CGRP P29A (25-37) (human); assay: as above
[10] = biological target: human α-CGRP V32A (25-37) (human); assay: as above
[11] = biological target: human α-CGRP G33A (25-37) (human); assay: as above
[12] = biological target: human α-CGRP T30A (25-37) (human); assay: as above
[13] = biological target: human α-CGRP F27A (25-37) (human); assay: as above
[14] = biological target: human α-CGRP fragment 25-37 (human); assay: Biacore SPR 25 C, Fab over N-biotinylated peptide on SA chip; mean ± SD of two measurements on different chips
[15] = biological target: human α-CGRP fragment 19-37 (human); assay: as above

Chain of human α-CGRP 1-37 (WT) (human) (peptide, as listed by the source): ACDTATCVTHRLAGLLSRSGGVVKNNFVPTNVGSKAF
Chain of rat α-CGRP (1-37) (rat) (peptide, as listed by the source): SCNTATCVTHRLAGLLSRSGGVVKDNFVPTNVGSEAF

Kd [1]	KD (mutant/parent) [2]	fold lower affinity than to full length human α-CGRP [3]	Kd (rat α-CGRP (1-37) (rat))	Kd [4]	Kd [5]	KD (mutant/parent) [6]	KD (mutant/parent) [7]	KD (mutant/parent) [8]	KD (mutant/parent) [9]	KD (mutant/parent) [10]	KD (mutant/parent) [11]	KD (mutant/parent) [12]	KD (mutant/parent) [13]	Kd [14]	Kd [15]	Substance
60.5 nM	0.3	6 fold	3.4 nM	139 nM	61 nM	0.3	0.8	0.8	0.2	0.9	1.3	0.2	0.8	296 nM	52 nM	anti-CGRP monoclonal antibody 4901, Fab fragment
							1						1			murine anti-CGRP monoclonal antibody 7E9, Fab fragment
